This note sets out measurements from the supplement of paper PMC9233669.

Fewer inactive variants are shown than the library holds.

The test system of one series is biotinyl-Phe-oxazolone. As to the kind of experiment: self-aminoacylation, catalytic enhancement (BFO) (fold over background); higher = more active; k-Seq, kA / k0A0; sequences stand for … in GGGAAUGGAUCCACAUCUACGAAUUC…UUCACUGCAGACUUGACGAAGCUG
The procedure, abridged: (§1)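 Mutagenized RNA pools with a 21-nt variable region (0.43 μM) were reacted with each biotinyl-aminoacyl-oxazolone at 2–1250 μM for 90 minutes at room temperature, in 50 μL HEPES/NaCl/KCl/MgCl2/CaCl2 buffer containing 5% acetonitrile at pH 6.9–7.0. RNA captured on streptavidin was quantified by triplicate qPCR and by Illumina sequencing. The fraction reacted for each sequence was fit to a pseudo-first-order model with bootstrapping, and catalytic enhancement is the median kA divided by the uncatalyzed rate, taken as the low-activity peak of a bimodal Gaussian fit.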

Another series has as its system biotinyl-Ile-oxazolone. As to the kind of experiment: self-aminoacylation, catalytic enhancement (BIO) (fold over background); higher = more active; k-Seq, kA / k0A0; sequences stand for … in GGGAAUGGAUCCACAUCUACGAAUUC…UUCACUGCAGACUUGACGAAGCUG
In outline: as §1

Another series has as its system biotinyl-Met-oxazolone. Kind of series: self-aminoacylation, catalytic enhancement (BMO) (fold over background); higher = more active; k-Seq, kA / k0A0; sequences stand for … in GGGAAUGGAUCCACAUCUACGAAUUC…UUCACUGCAGACUUGACGAAGCUG
In outline: as §1

The next series concerns biotinyl-Val-oxazolone. Kind of series: self-aminoacylation, catalytic enhancement (BVO) (fold over background); higher = more active; k-Seq, kA / k0A0; sequences stand for … in GGGAAUGGAUCCACAUCUACGAAUUC…UUCACUGCAGACUUGACGAAGCUG
In outline: as §1

The test system of another series is biotinyl-Leu-oxazolone. Kind of series: self-aminoacylation, catalytic enhancement (BLO) (fold over background); higher = more active; k-Seq, kA / k0A0; sequences stand for … in GGGAAUGGAUCCACAUCUACGAAUUC…UUCACUGCAGACUUGACGAAGCUG
The procedure, abridged: as §1

Another series concerns biotinyl-Trp-oxazolone. As to the kind of experiment: self-aminoacylation, catalytic enhancement (BWO) (fold over background); higher = more active; k-Seq, kA / k0A0; sequences stand for … in GGGAAUGGAUCCACAUCUACGAAUUC…UUCACUGCAGACUUGACGAAGCUG
In outline:
as §1

Take “AAGAUUGCCAAUAGUCGCAAG [Fam3.1 aminoacylation ribozyme variant]”: the self-aminoacylation with biotinyl-Phe-oxazolone stood at 1.69; in the series with biotinyl-Ile-oxazolone it was 1.51; in the series with biotinyl-Met-oxazolone it was 1.8; in the series on biotinyl-Val-oxazolone it was 1.81; in the series on biotinyl-Leu-oxazolone it was 1.63; in the series on biotinyl-Trp-oxazolone, 1.88.
On to “CCACUUCAAACAAUCGGACUG [Fam1A.1 aminoacylation ribozyme variant]”, for which the self-aminoacylation with biotinyl-Phe-oxazolone came out at 22.6; in the series with biotinyl-Ile-oxazolone, 0.9; in the series with biotinyl-Met-oxazolone, 1.03; with biotinyl-Val-oxazolone, 1.1; in the series on biotinyl-Leu-oxazolone it was 1.26; in the series with biotinyl-Trp-oxazolone it was 14.9.
Take “ACUCACCUAGGUCAUCCGGUG [Fam2.2 aminoacylation ribozyme variant]”: the self-aminoacylation in the series on biotinyl-Phe-oxazolone turned out to be 39.5; with biotinyl-Ile-oxazolone, 4.6; with biotinyl-Met-oxazolone, 6.22; in the series with biotinyl-Val-oxazolone, 5.7; with biotinyl-Leu-oxazolone, 7.63; in the series on biotinyl-Trp-oxazolone, 7.81.
In the case of “AAGUAUGCUAAUAGUCGCGAG [Fam3.1 aminoacylation ribozyme variant]”, the self-aminoacylation was 5.66 in the series with biotinyl-Phe-oxazolone, 2.14 with biotinyl-Ile-oxazolone, 2.21 in the series with biotinyl-Leu-oxazolone and 4.06 in the series with biotinyl-Trp-oxazolone.
For “AAGCUUGCUUAUAGUCGCAAG [Fam3.1 aminoacylation ribozyme variant]”, the self-aminoacylation in the series on biotinyl-Phe-oxazolone was 3.55; in the series with biotinyl-Ile-oxazolone, 2.13.
Turning to “AUUCACUUAGUUCAUCGGGUG [Fam2.2 aminoacylation ribozyme variant]”, the self-aminoacylation is 11.1 in the series on biotinyl-Phe-oxazolone; 2.18 in the series with biotinyl-Ile-oxazolone; 2.58 with biotinyl-Met-oxazolone; 2.93 in the series with biotinyl-Leu-oxazolone; 3.28 with biotinyl-Trp-oxazolone.
Take “CUUCACCUAGAUCAUCGGGUG [Fam2.2 aminoacylation ribozyme variant]”: the self-aminoacylation with biotinyl-Phe-oxazolone was 8.35; with biotinyl-Met-oxazolone, 3.54; with biotinyl-Val-oxazolone, 2.12; in the series on biotinyl-Leu-oxazolone, 2.86; with biotinyl-Trp-oxazolone, 3.41.
On to “AUUCACGUAGGUCAUCGGGCG [Fam2.2 aminoacylation ribozyme variant]”, for which the self-aminoacylation turned out to be 5.97 with biotinyl-Phe-oxazolone; 2.07 with biotinyl-Ile-oxazolone; 2.41 with biotinyl-Met-oxazolone; 2.56 in the series with biotinyl-Val-oxazolone; 2.57 with biotinyl-Leu-oxazolone.
As for “AUUACCCUGGUCAUCGAGCCA [Fam2.1 aminoacylation ribozyme variant]”, the self-aminoacylation turned out to be 2.92 in the series with biotinyl-Phe-oxazolone; 2.01 in the series on biotinyl-Ile-oxazolone; 2.36 in the series with biotinyl-Met-oxazolone; 2.23 with biotinyl-Leu-oxazolone; 3.35 in the series on biotinyl-Trp-oxazolone.
For “CCACACUUCGCGCAAUCGGUC [Fam1B.1 aminoacylation ribozyme variant]”, the self-aminoacylation with biotinyl-Phe-oxazolone came out at 10.5; in the series with biotinyl-Ile-oxazolone it was 2.21; in the series on biotinyl-Val-oxazolone, 2.51; in the series with biotinyl-Leu-oxazolone, 2.41; in the series on biotinyl-Trp-oxazolone, 2.77.
As for “AUUGCCCUGGUCAUCGAGCGA [Fam2.1 aminoacylation ribozyme variant]”, the self-aminoacylation in the series with biotinyl-Phe-oxazolone was 3.91; with biotinyl-Met-oxazolone, 2.55; in the series with biotinyl-Val-oxazolone it was 2.33; with biotinyl-Leu-oxazolone it was 3.48; in the series on biotinyl-Trp-oxazolone it was 3.11.
Take “AAGUUCGCCAAUAGUCGCAAG [Fam3.1 aminoacylation ribozyme variant]”: the self-aminoacylation in the series on biotinyl-Phe-oxazolone was determined as 2.83; in the series with biotinyl-Ile-oxazolone, 2.29; with biotinyl-Met-oxazolone, 2.18; in the series with biotinyl-Leu-oxazolone, 2.67; in the series with biotinyl-Trp-oxazolone, 2.98.
With “AUUCACCUAAGUCAUCGGGUA [Fam2.2 aminoacylation ribozyme variant]”, the self-aminoacylation in the series with biotinyl-Ile-oxazolone amounted to 2.81; in the series with biotinyl-Met-oxazolone, 2.44; in the series on biotinyl-Val-oxazolone, 2.62; with biotinyl-Leu-oxazolone, 3; in the series with biotinyl-Trp-oxazolone, 2.8.
For the sequence “ACGUUUGCUAAUAGUCGCGAG [Fam3.1 aminoacylation ribozyme variant]”, the self-aminoacylation with biotinyl-Phe-oxazolone was found to be 10.4; in the series with biotinyl-Ile-oxazolone, 2.65; with biotinyl-Val-oxazolone it was 2.12; in the series with biotinyl-Leu-oxazolone it was 2.48.
As for “ACGUUUGCUAAUAGUCGCAUG [Fam3.1 aminoacylation ribozyme variant]”, the self-aminoacylation in the series with biotinyl-Phe-oxazolone was found to be 3.06; with biotinyl-Ile-oxazolone, 2.21; in the series on biotinyl-Met-oxazolone, 2.14; with biotinyl-Leu-oxazolone, 2.5.
On to “AUUCACCGAGGUCAUCGGGUC [Fam2.2 aminoacylation ribozyme variant]”, for which the self-aminoacylation with biotinyl-Phe-oxazolone worked out at 7.57; in the series on biotinyl-Ile-oxazolone it was 2.18; with biotinyl-Val-oxazolone, 2.71; in the series with biotinyl-Leu-oxazolone it was 2.52.
In the case of “ACGUUUGCUAAUAGUCGCAAA [Fam3.1 aminoacylation ribozyme variant]”, the self-aminoacylation in the series with biotinyl-Phe-oxazolone came out at 2.87; in the series on biotinyl-Ile-oxazolone, 2.01; with biotinyl-Trp-oxazolone it was 2.36.
Consider “UUUCACCUAGGUAAUCGGGUG [Fam2.2 aminoacylation ribozyme variant]”, for which the self-aminoacylation in the series on biotinyl-Phe-oxazolone stood at 13.1; in the series on biotinyl-Ile-oxazolone, 2.1; with biotinyl-Met-oxazolone it was 2.66; in the series on biotinyl-Leu-oxazolone, 2.27; in the series on biotinyl-Trp-oxazolone, 3.75.
Take “AUCACCCUGGUCAUCGAGCGA [Fam2.1 aminoacylation ribozyme variant]”: the self-aminoacylation was 2.01 in the series on biotinyl-Ile-oxazolone; 2.16 in the series with biotinyl-Met-oxazolone; 2.53 in the series with biotinyl-Val-oxazolone; 3.35 in the series with biotinyl-Leu-oxazolone; 2.62 in the series with biotinyl-Trp-oxazolone.
With “CCACACUUCACGCAAUCGGCC [Fam1B.1 aminoacylation ribozyme variant]”, the self-aminoacylation with biotinyl-Phe-oxazolone was 13.9; in the series on biotinyl-Ile-oxazolone, 2.2; in the series on biotinyl-Met-oxazolone, 2.28; in the series on biotinyl-Val-oxazolone it was 3.47; with biotinyl-Trp-oxazolone, 4.2.
Regarding “CUACUUCAAACAUUCGGGCUG [Fam1A.1 aminoacylation ribozyme variant]”, the self-aminoacylation stood at 2.24 in the series on biotinyl-Ile-oxazolone, 2.06 in the series on biotinyl-Met-oxazolone and 2.14 with biotinyl-Val-oxazolone.
Regarding “AAUUUUGGUAAUAGUCGCAAG [Fam3.1 aminoacylation ribozyme variant]”, the self-aminoacylation in the series on biotinyl-Phe-oxazolone came to 2.19; with biotinyl-Ile-oxazolone, 2.06; with biotinyl-Met-oxazolone, 2.19.
Take “CGACACUUCAAGCAAUCGGUG [Fam1B.1 aminoacylation ribozyme variant]”: the self-aminoacylation with biotinyl-Ile-oxazolone was 2.4; in the series on biotinyl-Met-oxazolone, 2.37; in the series with biotinyl-Val-oxazolone, 2.27; in the series with biotinyl-Leu-oxazolone it was 2.22.
In the case of “AUUACCGUGGUGAUCGAGUGA [Fam2.1 aminoacylation ribozyme variant]”, the self-aminoacylation in the series on biotinyl-Phe-oxazolone turned out to be 15.6; in the series on biotinyl-Met-oxazolone it was 3.87; in the series on biotinyl-Val-oxazolone it was 2.31; with biotinyl-Leu-oxazolone it was 3.67; in the series with biotinyl-Trp-oxazolone it was 5.02.
Consider “CUACUGCAAACAAUCGGCCUG [Fam1A.1 aminoacylation ribozyme variant]”, for which the self-aminoacylation in the series on biotinyl-Phe-oxazolone amounted to 3.31; in the series with biotinyl-Met-oxazolone it was 2.1; in the series on biotinyl-Val-oxazolone, 2.27; in the series with biotinyl-Leu-oxazolone, 2.27; with biotinyl-Trp-oxazolone, 2.81.
Consider “AUUCACCUAGGGCAUCGGGGG [Fam2.2 aminoacylation ribozyme variant]”, for which the self-aminoacylation was found to be 7.22 with biotinyl-Phe-oxazolone; 2.98 in the series with biotinyl-Ile-oxazolone; 2.65 in the series on biotinyl-Met-oxazolone; 2.93 with biotinyl-Val-oxazolone; 3.63 with biotinyl-Leu-oxazolone.
In the case of “CCGCGCUUCAAGCAAUCGGUC [Fam1B.1 aminoacylation ribozyme variant]”, the self-aminoacylation in the series with biotinyl-Phe-oxazolone amounted to 158; in the series on biotinyl-Met-oxazolone, 2.37; in the series on biotinyl-Val-oxazolone it was 2.74; in the series on biotinyl-Leu-oxazolone it was 3.16; in the series with biotinyl-Trp-oxazolone, 77.2.
Consider “AAGCUUGCUAAUAGUCGCAAU [Fam3.1 aminoacylation ribozyme variant]”, for which the self-aminoacylation worked out at 2.59 with biotinyl-Phe-oxazolone, 2.93 with biotinyl-Ile-oxazolone, 2.34 with biotinyl-Met-oxazolone and 2.66 with biotinyl-Trp-oxazolone.
As to “AUUACCCUGGACUUCGAGUGA [Fam2.1 aminoacylation ribozyme variant]”, the self-aminoacylation is 11.4 in the series with biotinyl-Phe-oxazolone; 2.96 with biotinyl-Met-oxazolone; 2.17 with biotinyl-Val-oxazolone; 3.17 in the series with biotinyl-Leu-oxazolone; 4.38 with biotinyl-Trp-oxazolone.
For “ACUACCCUGGUCAUCGAGGGA [Fam2.1 aminoacylation ribozyme variant]”, the self-aminoacylation in the series with biotinyl-Phe-oxazolone was 2.42; in the series on biotinyl-Ile-oxazolone it was 2.12; with biotinyl-Met-oxazolone, 3.62; in the series with biotinyl-Leu-oxazolone, 3.13; in the series on biotinyl-Trp-oxazolone it was 3.04.
